According to paper doi:10.1101/2025.10.08.681078 (bioRxiv, 2025):

Legend:
[1] = molecular target: human MLC1 fused to C-terminal GFP (Homo sapiens (Human)., UniProt Q15049); assay: western blot
[2] = molecular target: mouse MLC1 fused to C-terminal GFP (Mus musculus (Mouse)., UniProt Q8VHK5); assay: western blot
[3] = molecular target: chicken MLC1 fused to C-terminal GFP (Gallus gallus, UniProt A0A1D5PIT5); assay: western blot
[4] = molecular target: Flag-tagged human MLC1 (human, UniProt Q15049); assay: western blot
Chain of Flag-tagged human MLC1 (Q15049 whole entry): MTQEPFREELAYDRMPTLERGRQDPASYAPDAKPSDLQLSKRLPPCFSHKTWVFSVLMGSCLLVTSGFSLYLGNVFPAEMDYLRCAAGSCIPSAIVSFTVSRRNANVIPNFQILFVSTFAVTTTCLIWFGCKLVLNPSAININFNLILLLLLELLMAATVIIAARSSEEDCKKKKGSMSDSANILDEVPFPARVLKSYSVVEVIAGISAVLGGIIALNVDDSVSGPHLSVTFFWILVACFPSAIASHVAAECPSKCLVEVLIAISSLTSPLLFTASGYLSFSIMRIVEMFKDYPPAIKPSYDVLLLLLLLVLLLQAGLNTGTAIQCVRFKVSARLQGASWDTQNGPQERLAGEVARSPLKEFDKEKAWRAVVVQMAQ

[5] = molecular target: Flag-tagged mouse MLC1 (mouse, UniProt Q8VHK5); assay: western blot
Chain of Flag-tagged mouse MLC1 (Q8VHK5 whole entry): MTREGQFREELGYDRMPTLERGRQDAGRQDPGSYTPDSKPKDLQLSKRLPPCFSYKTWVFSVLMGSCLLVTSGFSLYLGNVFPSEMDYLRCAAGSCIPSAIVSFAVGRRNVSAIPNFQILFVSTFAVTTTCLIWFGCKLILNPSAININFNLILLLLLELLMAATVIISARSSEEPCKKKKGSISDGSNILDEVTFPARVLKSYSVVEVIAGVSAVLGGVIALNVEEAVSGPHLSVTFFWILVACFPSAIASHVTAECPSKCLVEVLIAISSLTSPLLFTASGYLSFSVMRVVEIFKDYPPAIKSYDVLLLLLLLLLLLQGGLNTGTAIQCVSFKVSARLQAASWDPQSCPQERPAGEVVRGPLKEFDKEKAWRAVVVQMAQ

[6] = molecular target: endogenous human MLC1 (Homo sapiens (Human)., UniProt Q15049); assay: immunostaining of cells or tissue
Chain of endogenous human MLC1 (Q15049 whole entry): as the sequence (Q15049 whole entry) above

[7] = molecular target: Flag::hMLC1::GFP (Homo sapiens (Human)., UniProt Q15049); assay: immunostaining of cells or tissue
Chain of Flag::hMLC1::GFP (Q15049 whole entry): as above

[8] = molecular target: endogenous mouse MLC1 (Mus musculus (Mouse)., UniProt Q8VHK5); assay: co-IP
Chain of endogenous mouse MLC1 (Q8VHK5 whole entry): as the sequence (Q8VHK5 whole entry) above

[9] = molecular target: T1, MLC1-derived peptide (antigen peptide of the cryo-EM complex) (Mus musculus); assay: cryo-EM structure
T1 chain: YDRMPTLERGRQDA

Measured: binding result

Chain of human MLC1 fused to C-terminal GFP (Q15049 whole entry, the tested form may be a part): as the sequence (Q15049 whole entry) above
Chain of mouse MLC1 fused to C-terminal GFP (Q8VHK5 whole entry, the tested form may be a part): as the sequence (Q8VHK5 whole entry) above

B1: monoclonal antibody 37E5 (anti-MLC1), whole IgG (antibody, V domains shown)
VH: QIQLVQSGPDLKKPGETVKISCKASGYTFTNYGMSWVKQAPGKVLKWMGWINTYTGEPTYADDFKGRFAFSLETSANTAYLQINNLKNEDTATYFCAREGATSGFPYWGQGTLVTVSA
VL: DIVMSQSPSSLAVSAGEKVTMSCRSSQSLLNSRTRKNYLAWYQQKPGQSPKLLIYWASTRESGVPDRFTGSGSGTDFTLTISSVQAEDLAVYYCKQSYDLPYTFGGGTKLEIK
binds: [1] | [2] | [3] | [4] | [5] | [6] | [7] | [8]

B2: 37E5 Fab fragment (Fab, V domains shown)
VH: QIQLVQSGPDLKKPGETVKISCKASGYTFTNYGMSWVKQAPGKVLKWMGWINTYTGEPTYADDFKGRFAFSLETSANTAYLQINNLKNEDTATYFCAREGATSGFPYWGQGTLVTVSA
VL: DIVMSQSPSSLAVSAGEKVTMSCRSSQSLLNSRTRKNYLAWYQQKPGQSPKLLIYWASTRESGVPDRFTGSGSGTDFTLTISSVQAEDLAVYYCKQSYDLPYTFGGGTKLEIK
binds: [9]
